Data taken from patent publication US20250026827A1 (Alector, published 2025).
Like-named read-outs stand apart in the source and are kept apart here.

T1: mouse SIRPα D1-Fc (mouse, UniProt P97797 32-150, limits assumed)
T1 construct: domain: D1
T1 sequence (looked up): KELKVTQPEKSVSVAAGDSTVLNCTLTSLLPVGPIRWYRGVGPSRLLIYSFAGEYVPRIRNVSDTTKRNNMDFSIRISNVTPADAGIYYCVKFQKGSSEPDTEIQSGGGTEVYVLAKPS

T2: mouse SIRPβ1 on CHO cells (mouse)
T2 construct: Whole entry
T2 chain: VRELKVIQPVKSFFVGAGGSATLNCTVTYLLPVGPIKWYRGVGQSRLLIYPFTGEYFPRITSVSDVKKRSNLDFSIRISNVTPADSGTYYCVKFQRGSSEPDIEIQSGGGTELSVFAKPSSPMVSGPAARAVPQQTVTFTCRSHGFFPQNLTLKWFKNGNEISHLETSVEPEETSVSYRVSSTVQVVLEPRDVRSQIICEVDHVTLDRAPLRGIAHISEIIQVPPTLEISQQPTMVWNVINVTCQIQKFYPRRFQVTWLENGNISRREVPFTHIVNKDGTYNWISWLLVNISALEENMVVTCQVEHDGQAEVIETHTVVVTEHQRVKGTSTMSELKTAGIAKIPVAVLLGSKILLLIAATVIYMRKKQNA

T3: mouse SIRPα on cells (mouse, UniProt P97797 32-513)
T3 construct: whole, on cells
T3 sequence (looked up): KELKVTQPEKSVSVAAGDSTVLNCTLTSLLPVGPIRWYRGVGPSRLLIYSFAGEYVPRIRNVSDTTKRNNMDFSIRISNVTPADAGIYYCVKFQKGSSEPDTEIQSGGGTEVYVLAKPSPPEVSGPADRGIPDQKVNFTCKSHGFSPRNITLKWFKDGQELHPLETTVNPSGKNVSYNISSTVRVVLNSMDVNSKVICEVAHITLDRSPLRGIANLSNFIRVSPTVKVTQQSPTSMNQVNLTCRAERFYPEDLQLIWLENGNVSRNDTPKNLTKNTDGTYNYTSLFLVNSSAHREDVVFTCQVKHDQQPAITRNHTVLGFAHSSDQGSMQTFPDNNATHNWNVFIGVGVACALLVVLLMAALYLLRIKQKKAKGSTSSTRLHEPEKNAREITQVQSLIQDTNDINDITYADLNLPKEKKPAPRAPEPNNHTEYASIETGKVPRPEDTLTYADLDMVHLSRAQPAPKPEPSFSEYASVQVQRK


Experiments:
mouse SIRPα D1-Fc = molecular target: T1, mouse SIRPα D1-Fc; experiment: Octet
human SIRPα on cells [1] = molecular target: T4, human SIRPα on cells (human, UniProt P78324 31-504); experiment: flow cytometry
T4 construct: Whole entry

[2] = molecular target: T2, mouse SIRPβ1 on CHO cells; experiment: flow cytometry
mouse SIRPα on cells [3] = molecular target: T3, mouse SIRPα on cells; experiment: flow cytometry;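 for FOB: antibodies tested at 1 µg/ml for 30 min on ice against receptor-expressing cells, detected with a PE-labelled secondary antibody, read as mean fluorescence intensity relative to background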
[4] = molecular target: T5, human SIRPβ1 isoform 1 on cells (human, UniProt O00241 30-398); experiment: flow cytometry
T5 construct: On CHO cells (low level), on BWZ/BW5147.G.1.4 cells (reporter cells co-express human DAP12) or on primary human myeloid cells; also called huSIRPβ1; BWZ-huSIRPβ1
T5 sequence (O00241 30-398): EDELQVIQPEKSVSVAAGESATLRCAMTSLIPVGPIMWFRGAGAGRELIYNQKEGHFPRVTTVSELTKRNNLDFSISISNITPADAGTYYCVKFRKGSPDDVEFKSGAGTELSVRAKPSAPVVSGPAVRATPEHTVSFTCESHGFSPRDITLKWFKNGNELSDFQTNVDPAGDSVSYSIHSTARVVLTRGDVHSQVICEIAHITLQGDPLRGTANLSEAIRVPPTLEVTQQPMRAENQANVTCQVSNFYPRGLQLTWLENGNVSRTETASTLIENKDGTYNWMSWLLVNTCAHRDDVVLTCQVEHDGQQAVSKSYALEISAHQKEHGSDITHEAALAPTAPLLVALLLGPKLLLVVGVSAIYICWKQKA

human SIRPα on cells [5] = molecular target: T4, human SIRPα on cells; experiment: flow cytometry; remark: listed apart in the source
[6] = molecular target: T2, mouse SIRPβ1 on CHO cells; experiment: flow cytometry
mouse SIRPα on cells [7] = molecular target: T3, mouse SIRPα on cells; experiment: flow cytometry; remark: listed apart in the source;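 for FOB: antibodies tested at 1 µg/ml for 30 min on ice against receptor-expressing cells, detected with a PE-labelled secondary antibody, read as mean fluorescence intensity relative to background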
[8] = molecular target: T5, human SIRPβ1 isoform 1 on cells; experiment: flow cytometry; remark: listed apart in the source
human SIRPα on cells [9] = molecular target: T4, human SIRPα on cells; experiment: flow cytometry; remark: listed apart in the source
[10] = molecular target: T2, mouse SIRPβ1 on CHO cells; experiment: flow cytometry
[11] = molecular target: T6, human SIRPβ1 domain 1 (D1) Fc fusion (human, UniProt O00241 30-148); experiment: Octet, IgG avid
T6 construct: Made in HEK293/T cells with a heterologous signal peptide; also called Human SIRPβ1 D1-Fc; Human SIRPβ1-Fc; not shown: C-terminal human IgG1 Fc
T6 sequence (O00241 30-148 limits assumed): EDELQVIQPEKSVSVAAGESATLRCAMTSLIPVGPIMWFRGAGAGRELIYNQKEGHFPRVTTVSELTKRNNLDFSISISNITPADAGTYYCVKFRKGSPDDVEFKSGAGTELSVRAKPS

[12] = molecular target: T7, human SIRPα domain 1 (D1) Fc fusion (human, UniProt P78324 32-149); experiment: Octet, IgG avid
T7 construct: also called human SIRPα D1-Fc; Human SIRPα Fc; not shown: C-terminal human IgG1 Fc

[13] = molecular target: T8, Soluble, human SIRPβ1-Fc isoform 1 (O00241) (human, UniProt O00241 30-371, limits assumed); experiment: ELISA, antigen coated
T8 construct: Whole entry named; also called human SIRPβ1 isoform 1
T8 sequence (O00241 30-371 limits assumed, one chain of several): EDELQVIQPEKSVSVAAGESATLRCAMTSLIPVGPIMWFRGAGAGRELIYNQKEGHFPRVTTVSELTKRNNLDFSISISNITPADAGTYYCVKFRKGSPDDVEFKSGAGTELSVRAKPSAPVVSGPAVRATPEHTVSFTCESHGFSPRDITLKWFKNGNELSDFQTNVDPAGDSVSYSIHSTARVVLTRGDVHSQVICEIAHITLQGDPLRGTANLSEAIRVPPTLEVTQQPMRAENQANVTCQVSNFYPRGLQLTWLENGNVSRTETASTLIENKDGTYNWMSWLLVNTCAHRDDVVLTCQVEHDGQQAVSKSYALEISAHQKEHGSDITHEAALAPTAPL
Description: Recombinant antigen based on the sequence of SIRPβ1 isoform 1 was used for selecting anti-SIRPβ1 antibodies from yeast library pools. To ascertain if the selected anti-SIRPβ1 antibodies cross-reacted with other isoforms of human SIRPβ1 or with cynomolgus SIRPβ1, recombinant antigens based on human SIRPβ1 isoform 3 sequence and cynomolgus SIRPβ1 isoform 1 sequence were produced by transient transfection in HEK293 cells. Purified, Fc-tagged recombinant proteins were adsorbed onto 96-well plates at 1 μg/mL overnight at 4° C. Plates were subsequently washed with PBS+0.05% Tween-20 and blocked with 1% BSA+PBS for 2 hours at room temperature. Antibodies diluted in blocking buffer at 1 μg/mL were added to wells, serially diluted, and allowed to bind antigen overnight at 4° C. The following day, the primary antibodies were removed and anti-human kappa light chain antibody conjugated to horseradish peroxidase diluted 1:10,000 in blocking buffer were added to wells and incubated for 1 hour at room temperature. Plates were washed with PBS+0.05% Tween-20 and 100 μL of TMB substrate solution was added to wells to generate a colorimetric signal proportional to amount of anti-SIRPβ1 antibody bound to antigen. Once the reaction reached an appropriate color intensity, 100 μL of Stop solution was added to quench the enzyme.
(§1) Eight anti-SIRPβ1 antibodies (four parental antibodies and four corresponding affinity matured antibodies) were selected for analysis.

[14] = molecular target: T5, human SIRPβ1 isoform 1 on cells; experiment: cell-based or functional assay
[15] = molecular target: T5, human SIRPβ1 isoform 1 on cells; experiment: cell binding titration; target not given
[16] = molecular target: T9, human SIRPβ1-Fc isoform 3 (Q5TFQ8) (human, UniProt Q5TFQ8 30-371, limits assumed); experiment: ELISA on plate-coated huSirpB-Fc (Q5TFQ8.1), anti-human kappa-HRP, A450
T9 construct: Whole entry named; made in HEK293 cells; also called human SIRPβ1 isoform 3
T9 sequence (Q5TFQ8 30-371 limits assumed, one chain of several): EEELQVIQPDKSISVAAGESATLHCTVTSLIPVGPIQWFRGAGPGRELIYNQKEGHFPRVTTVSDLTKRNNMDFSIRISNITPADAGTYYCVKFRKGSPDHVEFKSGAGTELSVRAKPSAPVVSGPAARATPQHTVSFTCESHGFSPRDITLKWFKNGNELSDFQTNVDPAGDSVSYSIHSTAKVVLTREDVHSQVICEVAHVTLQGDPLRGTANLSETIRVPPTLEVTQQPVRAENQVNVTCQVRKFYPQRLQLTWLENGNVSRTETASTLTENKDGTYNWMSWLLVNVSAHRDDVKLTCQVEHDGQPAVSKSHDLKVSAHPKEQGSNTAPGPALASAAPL
Protocol: To ascertain if the selected anti-SIRPβ1 antibodies cross-reacted with other isoforms of human SIRPβ1 or with cynomolgus SIRPβ1, recombinant antigens based on human SIRPβ1 isoform 3 sequence and cynomolgus SIRPβ1 isoform 1 sequence were produced by transient transfection in HEK293 cells. Purified, Fc-tagged recombinant proteins were adsorbed onto 96-well plates at 1 μg/mL overnight at 4° C. Plates were subsequently washed with PBS+0.05% Tween-20 and blocked with 1% BSA+PBS for 2 hours at room temperature. Antibodies diluted in blocking buffer at 1 μg/mL were added to wells, serially diluted, and allowed to bind antigen overnight at 4° C. The following day, the primary antibodies were removed and anti-human kappa light chain antibody conjugated to horseradish peroxidase diluted 1:10,000 in blocking buffer were added to wells and incubated for 1 hour at room temperature. Plates were washed with PBS+0.05% Tween-20 and 100 μL of TMB substrate solution was added to wells to generate a colorimetric signal proportional to amount of anti-SIRPβ1 antibody bound to antigen. Once the reaction reached an appropriate color intensity, 100 μL of Stop solution was added to quench the enzyme.
as §1

[17] = molecular target: T7, human SIRPα domain 1 (D1) Fc fusion; experiment: Octet
[18] = molecular target: T5, human SIRPβ1 isoform 1 on cells; experiment: flow cytometry titration, BWZ-huSIRPβ1 cells
Protocol: (§2) In these experiments, two antibodies previously described were used as positive controls: antibody 18D5 (an anti-SIRPβ antibody that cross-reacts with SIRPα and SIRPβ) and antibody KWAR23 (an anti-SIRPβ antibody that cross-reacts with SIRPα, SIRPβ, and SIRPγ). These antibodies were recombinantly produced on a human IgG4 backbone. […] Serial dilutions of each of the anti-SIRPβ1 monoclonal antibodies and control antibodies were added to 10⁵ cells and allowed to achieve binding equilibrium at 4° C. After addition of fluorescently-labeled secondary antibody and brief washing steps, MFI values as a function of titrated antibody concentration were recorded via FACS analysis.
In Table 14 below, EC50 values assign relative affinity by adding increasing concentrations of antibody variants to cells overexpressing SIRPβ 1. Receptor bound antibodies were detected by staining cells with anti-human IgG PE secondary antibody (Southern Biotech). Curves were fit using nonlinear regression analysis with Graphpad Prism 6 software.

SIRPγ on Jurkat cells = molecular target: T10, SIRPγ on Jurkat cells (human, UniProt Q9P1W8 29-387); experiment: flow cytometry on Jurkat cells (endogenous SIRPγ), fold over isotype (MFI)
T10 construct: whole, on cells
T10 sequence (Q9P1W8 29-387): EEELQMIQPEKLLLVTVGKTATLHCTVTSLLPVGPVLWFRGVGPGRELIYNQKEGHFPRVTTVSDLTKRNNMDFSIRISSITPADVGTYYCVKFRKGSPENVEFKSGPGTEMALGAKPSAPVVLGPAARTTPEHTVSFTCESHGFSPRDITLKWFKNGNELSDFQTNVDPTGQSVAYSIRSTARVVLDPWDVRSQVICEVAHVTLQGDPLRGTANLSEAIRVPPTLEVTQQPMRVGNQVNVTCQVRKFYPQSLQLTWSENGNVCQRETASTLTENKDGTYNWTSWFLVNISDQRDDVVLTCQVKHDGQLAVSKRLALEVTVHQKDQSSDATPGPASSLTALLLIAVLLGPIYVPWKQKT
Protocol: (§3) To determine antigen specificity of anti-SIRPβ1 antibodies of the present disclosure, cell-based affinity measurements were performed to ascertain the apparent affinities of affinity-matured anti-SIRPβ 1 antibodies to cell surface-expressed antigen. BW5147.G.1.4 cells, an immortalized mouse T-cell line, were engineered to overexpress human SIRPβ1 (BWZ-huSIRPβ1) or human SIRPα (BWZ-huSIRPα). Jurkat cells, an immortalized human T cell line, endogenously express SIRPγ.
as §2
(§4) Receptor bound antibodies were detected by staining cells with anti-human IgG PE secondary antibody (Southern Biotech). Curves were fit using nonlinear regression analysis with Graphpad Prism 6 software.

human SIRPα on cells [19] = molecular target: T4, human SIRPα on cells; experiment: flow cytometry on BWZ cells overexpressing human SIRPα, fluorescent secondary antibody, MFI
Protocol: as §3, §2, §4

[20] = molecular target: T6, human SIRPβ1 domain 1 (D1) Fc fusion; experiment: Octet, Fab monovalent
Human SIRPβ HIS = molecular target: T11, Human SIRPβ HIS (human, UniProt O00241 30-148, limits assumed); experiment: MSD-SET, Fab monovalent
T11 construct: detected with streptavidin, so biotinylated; also called recombinant human SIRPβ1; human SIRPβ1 monomer
T11 sequence (O00241 30-148 limits assumed): as the sequence (O00241 30-148 limits assumed) above

Binder | binding result (mouse SIRPα D1-Fc) | binding result (human SIRPα on cells [1]) | binding result [2] | binding result (mouse SIRPα on cells [3]) | FOB [4] [fold over background] | FOB (human SIRPα on cells [5]) [fold over background] | FOB [6] [fold over background] | FOB (mouse SIRPα on cells [7]) [fold over background] | FOB [8] [fold over background] | FOB (human SIRPα on cells [9]) [fold over background] | FOB [10] [fold over background] | binding result [12] | EC50 [13] [nM] | EC50 [15] [nM] | binding result [16] | Kd [20] [nM] | Kd (Human SIRPβ HIS) [nM] | viable Raji-Luc cells with neutrophils and anti-CD20 [14] [%] | also measured
SB-8-13 (antibody, V domains shown, IgG) VH: QVQLQESGPGLVKPSETLSLTCAVSGYSISAHYYWGWIRQPPGKGLEWIGSIFHSGHTYYNPSLKSRVTISVDTSKNQFSLKLSSVTAADTAVYYCARGGAMTPAGMDVWGQGTTVTVSS VL: EIVMTQSPGTLSLSPGERATLSCRASQSVSSSYLAWYQQKPGQAPRLLIYGASNRATGIPDRFSGSGSGTDFTLTISRLEPEDFAVYYCQQVYSSPYTFGGGTKVEIK | – | – | no binding (tested: 1 ug/ml) | – | – | – | – | – | 7 | 1 | 2 | no binding (tested: 100 nM) | 0.019 | 0.253 | no binding (tested: 1 ug/mL) | – | – | – | EC50 [18]: 0.199 nM; binding result (SIRPγ on Jurkat cells): no binding (tested: Log nM about 1.8 (about 60 nM)); binding result (human SIRPα on cells [19]): no binding (tested: Log nM about 0.8 (about 7 nM))
SB-8-13 Fab (Fab, V domains shown, Fab by papain digestion) VH: QVQLQESGPGLVKPSETLSLTCAVSGYSISAHYYWGWIRQPPGKGLEWIGSIFHSGHTYYNPSLKSRVTISVDTSKNQFSLKLSSVTAADTAVYYCARGGAMTPAGMDVWGQGTTVTVSS VL: EIVMTQSPGTLSLSPGERATLSCRASQSVSSSYLAWYQQKPGQAPRLLIYGASNRATGIPDRFSGSGSGTDFTLTISRLEPEDFAVYYCQQVYSSPYTFGGGTKVEIK | – | – | – | – | – | – | – | – | – | – | – | – | – | – | – | 2.85 | 0.063 | – | –
SB-8-14 Fab (Fab, V domains shown, Fab by papain digestion) VH: QVQLQESGPGLVKPSETLSLTCAVSGYSISPHYYWGWIRQPPGKGLEWIGSIYHSGHTYYNPSLKSRVTISVDTSKNQFSLKLSSVTAADTAVYYCARGGAMTPAGMDVWGQGTTVTVSS VL: EIVMTQSPGTLSLSPGERATLSCRASQSVSSSYLAWYQQKPGQAPRLLIYGASNRATGIPDRFSGSGSGTDFTLTISRLEPEDFAVYYCQQVYSSPYTFGGGTKVEIK | – | – | – | – | – | – | – | – | – | – | – | – | – | – | – | 3.25 | 0.053 | – | –
SB-8-15 Fab (Fab, V domains shown, Fab by papain digestion) VH: QVQLQESGPGLVKPSETLSLTCAVSGYSISAHYYWGWIRQPPGKGLEWIGSIYQSGHTYYNPSLKSRVTISVDTSKNQFSLKLSSVTAADTAVYYCARGGAMTPAGMDVWGQGTTVTVSS VL: EIVMTQSPGTLSLSPGERATLSCRASQSVSSSYLAWYQQKPGQAPRLLIYGASNRATGIPDRFSGSGSGTDFTLTISRLEPEDFAVYYCQQVYSSPYTFGGGTKVEIK | – | – | – | – | – | – | – | – | – | – | – | – | – | – | – | 3.73 | 0.048 | – | –

Second part, led by results:

binding result (mouse SIRPα D1-Fc) | binding result (human SIRPα on cells [1]) | binding result [2] | binding result (mouse SIRPα on cells [3]) | FOB [4] [fold over background] | FOB (human SIRPα on cells [5]) [fold over background] | FOB [6] [fold over background] | FOB (mouse SIRPα on cells [7]) [fold over background] | FOB [8] [fold over background] | FOB (human SIRPα on cells [9]) [fold over background] | FOB [10] [fold over background] | binding result [12] | EC50 [13] [nM] | EC50 [15] [nM] | binding result [16] | Kd [20] [nM] | Kd (Human SIRPβ HIS) [nM] | Binder | viable Raji-Luc cells with neutrophils and anti-CD20 [14] [%] | also measured
no binding (tested: 100 nM) | no binding (tested: 1 ug/ml) | no binding (tested: 1 ug/ml) | no binding (tested: 1 ug/ml) | 5.7 | 2.3 | 1.1 | 1.4 | 2 | 1 | 1 | no binding (tested: 100 nM) | 0.034 | 0.072 | no binding (tested: 1 ug/mL) | – | – | SB-1 (antibody, V domains shown, IgG; also called SB-1 (p)) VH: not shown VL: EIVMTQSPGTLSLSPGERATLSCRASQSVSSSYLAWYQQKPGQAPRLLIYGASSRATGIPDRFSGSGSGTDFTLTISRLEPEDFAVYYCQLLGSSPRTFGGGTKVEIK | ~50 | Kd [11]: 0.966 nM
no binding (tested: 100 nM) | no binding (tested: 1 ug/ml) | no binding (tested: 1 ug/ml) | no binding (tested: 1 ug/ml) | 8.7 | 3 | 1.3 | 1.1 | 2 | 1 | 1 | no binding (tested: 100 nM) | 0.032 | 0.235 | no binding (tested: 1 ug/mL) | – | – | SB-2 (antibody, V domains shown, IgG; also called SB-2 (p)) VH: QVQLVESGGGVVQPGRSLRLSCAASGFTFSSYGMNWVRQAPGKGLEWVAVIWYDGSNKYYADSVKGRFTISRDNSKNTLYLQMNSLRAEDTAVYYCARDQTAAAAIWGMDVWGQGTTVTVSS VL: EIVLTQSPGTLSLSPGERATLSCRASQSVSSSYLAWYQQKPGQAPRLLIYGASSRATGIPDRFSGSGSGTDFTLTISRLEPEDFAVYYCQQSSSHPFTFGGGTKVEIK | ~50 | Kd [11]: 1.97 nM
no binding (tested: 100 nM) | no binding (tested: 1 ug/ml) | no binding (tested: 1 ug/ml) | no binding (tested: 1 ug/ml) | 2.5 | 1.8 | 1.3 | 1.3 | – | – | – | – | – | – | – | – | – | SB-3 (antibody, V domains shown, IgG) VH: not shown VL: EIVMTQSPATLSLSPGERATLSCRASQSVSSYLAWYQQKPGQAPRLLIYDASNRATGIPARFSGSGSGTDFTLTISSLEPEDFAVYYCQQRLFHPPTFGGGTKVEIK | ~50 | binding result [17]: no binding (tested: 100 nM)
no binding (tested: 100 nM) | no binding (tested: 1 ug/ml) | no binding (tested: 1 ug/ml) | no binding (tested: 1 ug/ml) | 1.7 | 2 | 1.2 | 0.9 | – | – | – | – | – | – | – | – | – | SB-4 (antibody, V domains shown, IgG) VH: QVQLVQSGAEVKKPGASVKVSCKASGYTFTSYGISWVRQAPGQGLEWMGWISAYNGNTNYAQKLQGRVTMTTDTSTSTAYMELRSLRSDDTAVYYCARSGTHFGTYSYSNWFDPWGQGTLVTVSS VL: EIVLTQSPGTLSLSPGERATLSCRASQSVSSSYLAWYQQKPGQAPRLLIYGASSRATGIPDRFSGSGSGTDFTLTISRLEPEDFAVYYCQQYADAPITFGGGTKVEIK | ~50 | binding result [17]: no binding (tested: 100 nM)
